Laboratory results reported in patent US20220025071A1.

What was measured:
[1] = target: Recombinant human Fc gamma receptor IIb/c, CD32b/c (human) (UniProt P31994)
[2] = target: Recombinant human Fc gamma receptor IIIb, CD16b (human) (UniProt O75015)
[3] = target: Recombinant human Fc gamma receptor I, CD64 (human) (UniProt P12314)
[4] = target: Recombinant human Fc gamma receptor IIIa, CD16a 158V (human) (UniProt P08637)
[5] = target: Recombinant human Fc gamma receptor IIa, CD32a 131R (human) (UniProt P12318)
[6] = target: Recombinant human Fc gamma receptor IIa, CD32a 131H (human) (UniProt P12318)
[7] = target: CD20 Lipoparticles (UniProt P11836)
Sequence of CD20 Lipoparticles (P11836 whole entry): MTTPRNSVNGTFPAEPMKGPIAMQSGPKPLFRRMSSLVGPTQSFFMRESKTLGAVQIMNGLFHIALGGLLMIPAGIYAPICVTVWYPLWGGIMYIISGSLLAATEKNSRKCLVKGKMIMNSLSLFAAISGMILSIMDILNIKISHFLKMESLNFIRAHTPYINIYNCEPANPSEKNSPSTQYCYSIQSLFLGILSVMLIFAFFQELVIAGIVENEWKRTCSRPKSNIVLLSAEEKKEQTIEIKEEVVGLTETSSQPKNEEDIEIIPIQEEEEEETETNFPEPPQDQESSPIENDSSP

Sequence of Recombinant human Fc gamma receptor IIIb, CD16b (human) (O75015 17-200 limits assumed): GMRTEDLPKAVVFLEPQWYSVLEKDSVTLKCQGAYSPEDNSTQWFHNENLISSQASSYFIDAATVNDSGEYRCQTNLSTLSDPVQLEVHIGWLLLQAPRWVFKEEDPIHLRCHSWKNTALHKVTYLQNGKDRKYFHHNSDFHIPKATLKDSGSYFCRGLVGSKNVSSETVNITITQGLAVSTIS
Sequence of Recombinant human Fc gamma receptor IIIa, CD16a 158V (human) (P08637 17-208 F176V limits assumed): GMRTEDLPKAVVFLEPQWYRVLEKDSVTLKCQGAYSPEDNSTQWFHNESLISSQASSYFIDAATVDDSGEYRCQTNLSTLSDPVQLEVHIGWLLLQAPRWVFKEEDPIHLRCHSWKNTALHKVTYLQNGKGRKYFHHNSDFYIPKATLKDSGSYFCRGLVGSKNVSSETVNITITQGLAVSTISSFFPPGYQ
Sequence of Recombinant human Fc gamma receptor IIa, CD32a 131H (human) (P12318 36-218): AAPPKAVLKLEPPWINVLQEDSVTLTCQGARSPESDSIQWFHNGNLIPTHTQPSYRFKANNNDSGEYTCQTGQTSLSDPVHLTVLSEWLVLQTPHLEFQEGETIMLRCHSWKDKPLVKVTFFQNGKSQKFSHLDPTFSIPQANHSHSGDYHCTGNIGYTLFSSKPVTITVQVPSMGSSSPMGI
Sequence of Recombinant human Fc gamma receptor IIa, CD32a 131R (human) (P12318 36-218 H167R): as the sequence (P12318 36-218) above, with H132R counted along it
Sequence of Recombinant human Fc gamma receptor IIb/c, CD32b/c (human) (P31994 46-217): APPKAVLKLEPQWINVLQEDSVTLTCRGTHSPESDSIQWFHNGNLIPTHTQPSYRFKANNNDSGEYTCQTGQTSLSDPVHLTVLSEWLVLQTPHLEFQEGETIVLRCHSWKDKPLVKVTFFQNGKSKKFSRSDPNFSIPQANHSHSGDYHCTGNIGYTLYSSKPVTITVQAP
Sequence of Recombinant human Fc gamma receptor I, CD64 (human) (P12314 16-288 limits assumed): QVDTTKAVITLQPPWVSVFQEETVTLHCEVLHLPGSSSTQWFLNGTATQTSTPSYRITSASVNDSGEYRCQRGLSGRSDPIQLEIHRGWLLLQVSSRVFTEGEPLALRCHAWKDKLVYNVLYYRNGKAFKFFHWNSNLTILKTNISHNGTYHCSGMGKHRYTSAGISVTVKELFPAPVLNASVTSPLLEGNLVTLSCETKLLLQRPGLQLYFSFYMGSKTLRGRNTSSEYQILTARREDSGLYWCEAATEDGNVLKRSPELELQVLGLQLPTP

Kd [1]: 1520 nM
Kd [2]: 1530 nM
Kd [3]: 52.8 nM
Kd [4]: 715 nM
Kd [5]: 1250 nM
Kd [6]: 892 nM
Kd [7]: < 0.001 nM
Substance: Rituxan (antibody)
